We go through 1 substance from publication PMC6293278.

The test concerns the target Taxol-stabilized microtubules (polymerized purified tubulin) (UniProt P02550). Kind of test: Taxol-stabilized microtubule co-sedimentation assay. The following applies: 3:1 MT:MAP1S LC ratio; MAP1S LC pre-incubated with CDKL5 (WT according to the lane labels of panel E; the key of panel F prints CDKL5 KD); n = 3 technical …; parent: est. 13; read off a plot.

For the substance “Strep(II)-MAP1S LC WT (microtubule-associated protein 1S light chain) (from UniProt P0C5W1) S786A; S812A”, the other: Soluble MAP1S LC (%) came to 4.2%.
